Molecular target: ubiquitin-amyloid-β peptide fusion protein (H6Ub-Aβ42)

B1: yeast ubiquitin hydrolase-1 (YUH-1) (protein)
chain: MSGENRAVVPIESNPEVFTNFAHKLGLKNEWAYFDIYSLTEPELLAFLPRPVKAIVLLFPINEDRKSSTSQQITSSYDVIWFKQSVKNACGLYAILHSLSNNQSLLEPGSDLDNFLKSQSDTSSSKNRFDDVTTDQFVLNVIKENVQTFSTGQSEAPEATADTNLHYITYVEENGGIFELDGRNLSGPLYLGKSDPTATDLIEQELVRVRVASYMENANEEDVLNFAMLGLGPNWE
  electrophoresis with Coomassie staining of the enzyme reactant (cleavage of the fusion protein by ubiquitin hydrolase): the binding site between ubiquitin and amyloid-β peptide in the fusion protein is precisely cut by the action of ubiquitin hydrolase and the fusion protein is separated into a ubiquitin fragment and an amyloid-β peptide fragment
